Measured values taken from the RNAGym collection of RNA variant scans (doi:10.1073/pnas.2313332121).

B1: TPR t1 (parent)
chain: GACCAAUCUGCCCUCAGAGCUCGAGAACAUCUUCGGAUGCAGAGGAGGCAGGCUUCGGUGGCGCGAUAGCGCCAACGUCCUCAACCUCCAAUGCAUCCCACCACAUGAUGAUGCCUGAAGAGCCUUGGUUUUUUG

Variants of: B1
Test: polymerase ribozyme fitness, log enrichment relative to wild type (log ratio); higher = more active; in vitro selection for triplet polymerase activity
Summary of the method: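 Mutant libraries for each subunit of a heterodimeric triplet polymerase ribozyme were made by PCR and then transcribed. Each library underwent one round of in vitro selection in triplicate: annealing with a biotinylated primer, the partner subunit and triplets, frozen incubation at −7 °C, gel excision of extended constructs, streptavidin-bead capture and RT-PCR. Input and output libraries were Illumina-sequenced, and only genotypes with ≥10 input reads and ≥1 read per output were kept. Fitness is the logarithm, base 2, of genotype enrichment over wild-type enrichment, computed from inverse-variance-weighted replicate averages.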
For GACCAAUCUGCCCUCAGAGCUCGAGAACAUCUUCGGAUGCAGAGGAGGCAGGCUUGGGUGGCGCGAUAGCGCCAACGUCCUCAACCUCCAAUGCAUCCCACCACAUGAUGAUGCCUGAAGAGUCUUGGUUUUUUG [C56G C123U], the “polymerase ribozyme fitness (log ratio)” value was 0.748. For GACCAAUCUGCCCUCAGAGCUCGAGAACAUCUUCGGAUGCAGAGGAGGCAGGCUUGGGUGGCGCGAUAGCGCCAACGUCCUCAACCUCCAAUGCAUCCCACCACAUGAUGAUGCCUGAAGAGACUUGGUUUUUUG [C56G C123A], the “polymerase ribozyme fitness (log ratio)” value was 0.0294. For GACCAAUCUGCCCUCAGAGCUCGAGAACAUCUUCGGAUGCAGAGGAGGCAGGCUUGGGUGGCGCGAUAGCGCCAACGUCCUCAACCUACAAUGCAUCCCACCACAUGAUGAUGCUUGAGGAGCCUUGGUUUUUUG [C56G C88A C115U A119G], the “polymerase ribozyme fitness (log ratio)” value was 1.4. In the case of GACCAAUCUGCCCUCAGAGCUCGAGAACAUCUUCGGAUGCAGAGGAGGCAGGCUUGGGUGGCGCGAUAGCGCCAACGUCCUCAACCUCCAAUGCAUCCCACCACAUGAUGAUGACUGAAGAGCCUUGGUUUUUUG [C56G C114A], the “polymerase ribozyme fitness (log ratio)” value is reported as -2. With GACCAAUCUGCCCUCAGAGCUCGAGAACAUCUUCGGAUGCAGAGGAGGCAGGCUUAGGUGGCGCGAUAGCGCCAACGUCCUCAACCUCCAAUGCAUCCCACCACAUGAUGAUGCCUGAAGAGCCUUGGGUUUUUG [C56A U129G] the “polymerase ribozyme fitness (log ratio)” value was -2.29. For GACCAAUCUGCCCUCAGAGCUCGAGAACAUCUUCGGAUGCAGAGGAGGCAGGCUUAGGCGGCGCGAUAGCGCCAACGUCCUCAACCCCCAAUGCAUCCCACCACAUGAUGAAGCCUGAAGAGCCUUGGUUUUUUG [C56A U59C U87C U112A], the “polymerase ribozyme fitness (log ratio)” value was 0.408. In the case of GACCAAUCUGCCCUCAGAGCUCGAGAACAUCUUCGGAUGCAGAGGAGGCAGGCUUAGGUGGCGCGAUAGCGCCAACGUCCUCAACCUCCAAUGCAUCCCACCACAUGAUGAUACCUGAAGAGCCUUGGUUUUUUG [C56A G113A], the “polymerase ribozyme fitness (log ratio)” value is reported as -0.455. In the case of GACCAAUCUGCCCUCAGAGCUCGAGAACAUCUUCGGAUGCAGAGGAGGCAGGCUUGGGUGGCGCGAUAGCGCCAACGUCCUCAACCUUCAAUGCAUCCCACCACAUGAUGAUGCCUGAAGAGCCUUGGUUUUUUG [C56G C88U], the “polymerase ribozyme fitness (log ratio)” value is reported as -0.184. For GACCAAUCUGCCCUCAGAGCUCGAGAACAUCUUCGGAUGCAGAGGAGGCAGGCUUGGGUGGCGCGAUAGCGCCAACGUCCUCAACCUCCAAUGCAUCCCACCACAUGAUGGUGCCUGAAGAGCCUUGGUUUUUUG [C56G A111G], the “polymerase ribozyme fitness (log ratio)” value was 0.245. With GACCAAUCUGCCCUCAGAGCUCGAGAACAUCUUCGGAUGCAGAGGAGGCAGGCUUGGGUGGCGCGAUAGCGCCAACGUCCUCAACCUCCAAUGCAUCCCACCACAUGAUGCUGCCUGAAGAGCCUUGGUUUUUUG [C56G A111C] the “polymerase ribozyme fitness (log ratio)” value was -0.855. In the case of GACCAAUCUGCCCUCAGAGCUCGAGAACAUCUUCGGAUGCAGAGGAGGCAGGCUUGGGUGGCGCGAUAGCGGCAACGUCCUCAACCGCCAAUGCAUCUCACCACAUGAUGAUGCCUGAAGAGCCUUGGUUUUUUG [C56G C72G U87G C98U], the “polymerase ribozyme fitness (log ratio)” value is reported as -1.99. For GACCAAUCUGCCCUCAGAGCUCGAGAACAUCUUCGGAUGCAGAGGAGGCAGGCUUAGGUGGCGCGAUAGCGCCAACGUCCUCAACCUCCAAUGCAACCCACCACAUGAUGAUGCCUGAAGAGCCUUGGUUUUUUG [C56A U96A], the “polymerase ribozyme fitness (log ratio)” value was -1.63. With GACCAAUCUGCCCUCAGAGCUCGAGAACAUCUUCGGAUGCAGAGGAGGCAGGCUUGGGUGGCGCGAUAGCGCCAACGUCCUCAACAUCCAAUGCAUCCCACCACAUGAUGAUGCCUGAAGAGCCUUGGUUUUUUG [C56G C86A] the “polymerase ribozyme fitness (log ratio)” value was -1.6. In the case of GACCAAUCUGCCCUCAGAGCUCGAGAACAUCUUCGGAUGCAGAGGAGGCAGGCUUGGGUGGCGCGAUAGCGCCAACGUCCUCAACCUCCAAUGCAUCCCACCACAUGAUGAUGCCUGAAGUGCCUUGGUUUUUUG [C56G A121U], the “polymerase ribozyme fitness (log ratio)” value is reported as 1.73. For GACCAAUCUGCCCUCAGAGCUCGAGAACAUCUUCGGAUGCAGAGGAGGCAGGCUUAGGUGGCGCGAUAGCGCCAACGUCCUCAACCUCCAAUGCAUCCCACCACAUGAUGAUGCCUGAAGAGCCUUGGUUUAUUG [C56A U132A], the “polymerase ribozyme fitness (log ratio)” value was 0.197. For GACCAAUCUGCCCUCAGAGCUCGAGAACAUCUUCGGAUGCAGAGGAGGCAGGCUUGGGUGGCGCGAUAGAGCCAACGUCCUCGACCUCCAAUGCACCCCACCACAUGAUGAUGCCUGAAAAGCCUUGGUUUUUUG [C56G C70A A83G U96C G120A], the “polymerase ribozyme fitness (log ratio)” value was -4.37. For GACCAAUCUGCCCUCAGAGCUCGAGAACAUCUUCGGAUGCAGAGGAGGCAGGCUUGGGUGGCGUGAUAGCGCCAACGUCAUCAACCUCCAAUGCAUCCCACCACAUGAUGAUGCCUGAAGAGCCUUGGUUUUUUG [C56G C64U C80A], the “polymerase ribozyme fitness (log ratio)” value was -2.96. With GACCAAUCUGCCCUCAGAGCUCGAGAACAUCUUCGGAUGCAGAGGAGGCAGGCUUAGGUGGCGCGAUAGCGCCAACGUCCUCAACCUCCAAUGCAUCCCACCACAUGAUGAGGCCUGAAGAGCCUUGGUUUUUUG [C56A U112G] the “polymerase ribozyme fitness (log ratio)” value was -0.994. With GACCAAUCUGCCCUCAGAGCUCGAGAACAUCUUCGGAUGCAGAGGAGGCAGGCUUAGGUGGCGCGAUAGCGCCAACGUCCUCAACCUCCAAUGCAUCCCACCACAUGAUGAUGCCUGAACAGCCUUGGUUUUUUG [C56A G120C] the “polymerase ribozyme fitness (log ratio)” value was 0.484. With GACCAAUCUGCCCUCAGAGCUCGAGAACAUCUUCGGAUGCAGAGGAGGCAGGCUUGGGUGGCGCGAUAGCGCCAACGUCCUCAACCUCAAAUGCAUCCCACCACAUGAUGAUGCCUGAAGAGCCUUGGUUUUUUG [C56G C89A] the “polymerase ribozyme fitness (log ratio)” value was -2.22. In the case of GACCAAUCUGCCCUCAGAGCUCGAGAACAUCUUCGGAUGCAGAGGAGGCAGGCUUGGGUGGCGCGAUAGCGUCAACGUCCUCAACCUUCAAUGCAUCCCACCACAAGAUGAUGCCUGAAGAGCCUUGGUUUUAUG [C56G C72U C88U U106A U133A], the “polymerase ribozyme fitness (log ratio)” value is reported as -1.24.
